Legend:
[1] = target: T1, GRPR (Homo sapiens, UniProt P30550); assay: Competitive displacement binding assay in GRPR-positive PC-3 cells with [^125I-(Tyr4)-BBN]; settings: radioligand [^125I-(Tyr4)-BBN], 1 h, 37° C., read-out: IC50 PC3 cells
T1 construct: endogenous in cells; host or cells: PC-3 human prostate cancer cells (intact cells)
Protocol: (§1) (NAAG) as the radioligands. […] After incubation, the reaction medium was aspirated and the cells were rinsed three times with cold media. Cell-associated radioactivity was determined using a Packard Riastar gamma counter. […] The enzymatic reaction was stopped by addition of 50 μL of cold sodium phosphate buffer (0.1 M, pH=7.4). […] Scintillation cocktail was added to each fraction and the amount of radioactivity in each was determined by liquid scintillation counting.
(§2) (NAAG) as the radioligands. […] After incubation, the reaction medium was aspirated and the cells were rinsed three times with cold media. Cell-associated radioactivity was determined using a Packard Riastar gamma counter. […] For the PSMA-positive assay, the binding affinity was measured using the N-acetylated-α-linked acidic dipeptidase (NAALADase) assay. […] The enzymatic reaction was stopped by addition of 50 μL of cold sodium phosphate buffer (0.1 M, pH=7.4). […] Columns were pre-equilibrated with 0.2 M HCl prior to loading of the reaction mixture. […] Scintillation cocktail was added to each fraction and the amount of radioactivity in each was determined by liquid scintillation counting.

[2] = target: T2, PSMA (Homo sapiens, UniProt Q04609); assay: NAALADase assay with LNCaP homogenized cell membranes and [N-acetyl aspartyl ^3H-glutamate]; format: binding; settings: LNCaP homogenized cell membranes, read-out: IC50 LNCaP cells
T2 construct: endogenous in cells; host or cells: LNCaP human prostate cancer cells, homogenized cell membranes
T2 sequence (Q04609 whole entry): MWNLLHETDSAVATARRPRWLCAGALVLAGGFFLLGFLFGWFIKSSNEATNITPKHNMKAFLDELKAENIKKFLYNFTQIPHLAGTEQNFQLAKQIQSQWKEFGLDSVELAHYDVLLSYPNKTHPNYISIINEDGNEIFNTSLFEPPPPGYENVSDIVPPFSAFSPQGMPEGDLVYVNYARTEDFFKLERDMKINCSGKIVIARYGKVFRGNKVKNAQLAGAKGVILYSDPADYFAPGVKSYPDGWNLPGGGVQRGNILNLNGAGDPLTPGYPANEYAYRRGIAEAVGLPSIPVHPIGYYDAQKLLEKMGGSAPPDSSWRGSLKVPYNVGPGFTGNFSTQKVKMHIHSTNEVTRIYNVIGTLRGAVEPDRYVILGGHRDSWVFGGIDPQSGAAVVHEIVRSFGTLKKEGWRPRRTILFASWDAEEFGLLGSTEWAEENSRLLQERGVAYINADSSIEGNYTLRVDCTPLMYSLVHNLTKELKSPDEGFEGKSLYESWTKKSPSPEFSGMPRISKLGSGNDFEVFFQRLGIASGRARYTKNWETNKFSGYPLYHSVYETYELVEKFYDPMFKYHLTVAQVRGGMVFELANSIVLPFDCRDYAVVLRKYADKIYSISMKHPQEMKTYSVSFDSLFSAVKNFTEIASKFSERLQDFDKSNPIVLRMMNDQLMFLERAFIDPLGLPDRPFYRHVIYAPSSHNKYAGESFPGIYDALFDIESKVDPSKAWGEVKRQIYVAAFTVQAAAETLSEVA
Protocol: as §1, §2

[3] = in vivo; set-up: species or system CF-1 normal mice; settings: CF-1, mouse, iv, total radioactivity
[4] = tested on: metastatic disease; settings: ^68Ga-labeled agent; cited from earlier work
[5] = tested on: prostate tumors; settings: newly diagnosed PCa patients; cited from earlier work
[6] = in vivo; set-up: species or system ICR-SCID male mice; settings: male, ICR-SCID, mouse, iv, total radioactivity, Pancreas uptake
[7] = in vivo; set-up: species or system ICR-SCID male mice; settings: male, ICR-SCID, mouse, iv, total radioactivity, Brain uptake

T1 sequence (P30550 whole entry): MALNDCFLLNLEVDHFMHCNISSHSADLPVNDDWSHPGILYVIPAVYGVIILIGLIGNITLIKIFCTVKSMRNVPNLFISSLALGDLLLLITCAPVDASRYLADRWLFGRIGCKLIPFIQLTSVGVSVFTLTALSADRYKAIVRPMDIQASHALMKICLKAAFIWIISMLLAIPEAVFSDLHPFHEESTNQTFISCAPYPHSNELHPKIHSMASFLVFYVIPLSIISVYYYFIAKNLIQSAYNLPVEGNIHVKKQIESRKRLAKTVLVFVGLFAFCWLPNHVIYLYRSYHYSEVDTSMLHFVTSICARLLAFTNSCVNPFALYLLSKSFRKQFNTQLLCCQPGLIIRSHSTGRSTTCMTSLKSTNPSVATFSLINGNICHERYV

Row | Molecule | IC50 [2] [nM] | tissue uptake at 1 h ([3]; Bone uptake) [%ID/g] | tissue uptake at 1 h ([3]; Brain uptake) [%ID/g] | tissue uptake at 1 h ([3]; Heart uptake) [%ID/g] | tissue uptake at 1 h ([3]; Kidneys uptake) [%ID/g] | tissue uptake at 1 h ([3]; L. Intestine uptake) [%ID/g] | tissue uptake at 1 h ([3]; Liver uptake) [%ID/g] | tissue uptake at 1 h ([3]; Lung uptake) [%ID/g] | tissue uptake at 1 h ([3]; Muscle uptake) [%ID/g] | tissue uptake at 1 h ([3]; Pancreas uptake) [%ID/g] | tissue uptake at 1 h ([3]; S. Intestine uptake) [%ID/g] | tissue uptake at 1 h ([3]; Spleen uptake) [%ID/g] | tissue uptake at 1 h ([3]; Stomach uptake) [%ID/g] | further results
1 | [DUPA-6-Ahx-Lys(M-DOTA)-6-Ahx-RM2] | 9.3 ± 2.32 | – | – | – | – | – | – | – | – | – | – | – | – | IC50 [1]: 3.99 ± 1.8 nM
2 | CC(C)C[C@H](NC(=O)C[C@H](O)[C@H](CC(C)C)NC(=O)[C@H](Cc1c[nH]cn1)NC(=O)CNC(=O)[C@@H](NC(=O)[C@H](C)NC(=O)[C@H](Cc1c[nH]c2ccccc12)NC(=O)[C@H](CCC(N)=O)NC(=O)[C@@H](Cc1ccccc1)NC(=O)c1ccc(NC(=O)[C@H](CCCCNC(=O)CN2CCN(CC(=O)O)CCN(CC(=O)O)CCN(CC(=O)O)CC2)NC(=O)CCCCCNC(=O)CC[C@H](NC(=O)N[C@@H](CCC(=O)O)C(=O)O)C(=O)O)cc1)C(C)C)C(N)=O [DUPA-6-Ahx-Lys(^111In-DOTA)-AMBA-RM2, metal not drawn] | – | 0.06 ± 0.04 | 0.02 ± 0.01 | 0.12 ± 0.05 | 1.37 ± 0.31 | 0.09 ± 0.02 | 0.28 ± 0.04 | 1.01 ± 1.15 | 0.08 ± 0.02 | 0.24 ± 0.06 | 0.2 ± 0.04 | 0.15 ± 0.04 | 0.15 ± 0.06 | –
3 | CC(C)C[C@H](NC(=O)C[C@H](O)[C@H](CC(C)C)NC(=O)[C@H](Cc1c[nH]cn1)NC(=O)CNC(=O)[C@@H](NC(=O)[C@H](C)NC(=O)[C@H](Cc1c[nH]c2ccccc12)NC(=O)[C@H](CCC(N)=O)NC(=O)[C@@H](Cc1ccccc1)NC(=O)CCCCCNC(=O)[C@H](CCCCNC(=O)CN1CCN(CC(=O)O)CCN(CC(=O)O)CCN(CC(=O)O)CC1)NC(=O)CCCCCNC(=O)CC[C@H](NC(=O)N[C@@H](CCC(=O)O)C(=O)O)C(=O)O)C(C)C)C(N)=O [[DUPA-6-Ahx-[^natLu-DOTA]-6-Ahx-RM2]] [metal not drawn] | 13.9 ± 2.53 | – | – | – | – | – | – | – | – | – | – | – | – | –
4 | DOTA-p-aminomethylaniline-diglycolic acid-DPhe-Gln-Trp-Ala-Val-Gly-His-Leu-NHEt (FQWAVGHL; DOTA-p-aminomethylaniline-diglycolic acid N-term, C-terminal NHEt; (1)..(1) D-phenylalanine; (1)..(1) DOTA-p-aminomethylaniline-diglycolic acid linked to D-Phenylalanine) [SB3] | – | – | – | – | – | – | – | – | – | – | – | – | – | Metastatic disease detected, fraction of patients [4]: 5/9
5 | CC(C)C[C@H](NC(=O)C[C@H](O)[C@H](CC(C)C)NC(=O)[C@H](Cc1c[nH]cn1)NC(=O)CNC(=O)[C@@H](NC(=O)[C@H](C)NC(=O)[C@H](Cc1c[nH]c2ccccc12)NC(=O)[C@H](CCC(N)=O)NC(=O)[C@@H](Cc1ccccc1)NC(=O)CCCCNC(=O)[C@H](CCCCNC(=O)CN1CCN(CC(=O)O)CCN(CC(=O)O)CCN(CC(=O)O)CC1)NC(=O)CCCCCNC(=O)CC[C@H](NC(=O)N[C@@H](CCC(=O)O)C(=O)O)C(=O)O)C(C)C)C(N)=O [DUPA-6-Ahx-Lys(^111In-DOTA)-5-Ava-RM2, metal not drawn] | – | 0.09 ± 0.06 | 0.02 ± 0.01 | 0.11 ± 0.06 | 4.92 ± 0.84 | 0.12 ± 0.05 | 0.15 ± 0.05 | 0.68 ± 0.25 | 0.06 ± 0.04 | 1.02 ± 0.37 | 0.26 ± 0.09 | 0.13 ± 0.05 | 0.23 ± 0.18 | –
6 | ^64Cu-CB-TE2A-AR06 | – | – | – | – | – | – | – | – | – | – | – | – | – | High contrast imaging of prostate tumors, fraction of men [5]: ¾
7 | CC(C)C[C@H](NC(=O)C[C@H](O)[C@H](CC(C)C)NC(=O)[C@H](Cc1c[nH]cn1)NC(=O)CNC(=O)[C@@H](NC(=O)[C@H](C)NC(=O)[C@H](Cc1c[nH]c2ccccc12)NC(=O)[C@H](CCC(N)=O)NC(=O)[C@@H](Cc1ccccc1)NC(=O)CCCCCCCNC(=O)[C@H](CCCCNC(=O)CN1CCN(CC(=O)O)CCN(CC(=O)O)CCN(CC(=O)O)CC1)NC(=O)CCCCCNC(=O)CC[C@H](NC(=O)N[C@@H](CCC(=O)O)C(=O)O)C(=O)O)C(C)C)C(N)=O [DUPA-6-Ahx-Lys(^111In-DOTA)-8-Aoc-RM2, metal not drawn] | – | 0.14 ± 0.04 | 0.02 | 0.2 ± 0.14 | 1.37 ± 0.31 | 0.49 ± 0.25 | 0.38 ± 0.04 | 0.37 ± 0.03 | 0.1 ± 0.01 | 5.45 ± 0.47 | – | 0.49 ± 0.34 | 1.73 ± 2.49 | tissue uptake at 4 h [6]: 0.58 ± 0.1 %ID/g; tissue uptake at 24 h [7]: 0.01 %ID/g
8 | CC(C)C[C@H](NC(=O)C[C@H](O)[C@H](CC(C)C)NC(=O)[C@H](Cc1c[nH]cn1)NC(=O)CNC(=O)[C@@H](NC(=O)[C@H](C)NC(=O)[C@H](Cc1c[nH]c2ccccc12)NC(=O)[C@H](CCC(N)=O)NC(=O)[C@@H](Cc1ccccc1)NC(=O)CCCCCCCNC(=O)[C@H](CCCCNC(=O)CN1CCN(CC(=O)O)CCN(CC(=O)O)CCN(CC(=O)O)CC1)NC(=O)CCCCCNC(=O)CC[C@H](NC(=O)N[C@@H](CCC(=O)O)C(=O)O)C(=O)O)C(C)C)C(N)=O [[DUPA-6-Ahx-[^natLu-DOTA]-8-Aoc-RM2]] [metal not drawn] | 16 ± 2.79 | – | – | – | – | – | – | – | – | – | – | – | – | –
9 | CC(C)C[C@H](NC(=O)C[C@H](O)[C@H](CC(C)C)NC(=O)[C@H](Cc1c[nH]cn1)NC(=O)CNC(=O)[C@@H](NC(=O)[C@H](C)NC(=O)[C@H](Cc1c[nH]c2ccccc12)NC(=O)[C@H](CCC(N)=O)NC(=O)[C@@H](Cc1ccccc1)NC(=O)CCCCCNC(=O)[C@H](CCCCNC(=O)CN1CCN(CC(=O)O)CCN(CC(=O)O)CCN(CC(=O)O)CC1)NC(=O)CCCCCNC(=O)CC[C@H](NC(=O)N[C@@H](CCC(=O)O)C(=O)O)C(=O)O)C(C)C)C(N)=O [DUPA-6-Ahx-Lys(^111In-DOTA)-6-Ahx-RM2, metal not drawn] | – | 0.08 ± 0.06 | 0.03 ± 0.04 | 0.16 ± 0.22 | 2.84 ± 0.64 | 0.14 ± 0.12 | 0.23 ± 0.14 | 0.86 ± 0.7 | 0.07 ± 0.07 | 0.19 ± 0.19 | 0.22 ± 0.13 | 0.12 ± 0.13 | 0.14 ± 0.11 | –

Source: patent US11167048B2, “Dual targeting ligand for cancer diagnosis and treatment” (priority 2018, dated 2021)
